Source: US20150004155A1 (AIMM THERAPEUTICS B V, published 2015)

T1: RSV G protein of RSV A2 (native, on RSV A2 infected HEp2 cells / virus) (Respiratory Syncytial Virus subtype A, …, UniProt P03423 1-298)
T1 sequence: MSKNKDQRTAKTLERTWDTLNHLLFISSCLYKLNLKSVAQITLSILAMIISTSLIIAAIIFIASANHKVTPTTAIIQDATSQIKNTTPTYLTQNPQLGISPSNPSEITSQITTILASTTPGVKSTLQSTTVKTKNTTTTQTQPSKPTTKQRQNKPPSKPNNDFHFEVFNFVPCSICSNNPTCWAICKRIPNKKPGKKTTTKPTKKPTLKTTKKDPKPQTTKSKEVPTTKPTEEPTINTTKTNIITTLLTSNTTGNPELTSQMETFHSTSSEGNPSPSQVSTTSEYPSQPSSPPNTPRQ

T2: purified recombinant RSV-Gb protein (Sino Biologics) (Respiratory Syncytial Virus subtype B, …, UniProt O36633 67-299)
T2 sequence: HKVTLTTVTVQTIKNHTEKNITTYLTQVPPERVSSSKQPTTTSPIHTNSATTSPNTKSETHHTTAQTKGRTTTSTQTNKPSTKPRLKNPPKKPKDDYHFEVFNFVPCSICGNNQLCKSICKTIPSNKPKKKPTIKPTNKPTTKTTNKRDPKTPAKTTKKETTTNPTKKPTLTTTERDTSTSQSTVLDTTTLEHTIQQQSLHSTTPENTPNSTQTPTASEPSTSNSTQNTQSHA

T3: purified recombinant RSV-Ga protein (Sino Biologics) (Respiratory Syncytial Virus subtype A, …, UniProt P03423 64-298)
T3 sequence: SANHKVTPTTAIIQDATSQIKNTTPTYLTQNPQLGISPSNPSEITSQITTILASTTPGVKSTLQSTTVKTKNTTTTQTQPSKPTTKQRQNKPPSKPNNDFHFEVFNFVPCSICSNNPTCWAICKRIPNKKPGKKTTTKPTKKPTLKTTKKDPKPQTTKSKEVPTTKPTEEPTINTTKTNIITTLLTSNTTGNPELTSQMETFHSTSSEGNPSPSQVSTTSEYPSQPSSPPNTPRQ

T4: RSV G protein in denatured and boiled supernatant of RSV A2 infected HEp2 cells (western blot) (Respiratory Syncytial Virus subtype A, …, UniProt P03423 66-298)
T4 sequence: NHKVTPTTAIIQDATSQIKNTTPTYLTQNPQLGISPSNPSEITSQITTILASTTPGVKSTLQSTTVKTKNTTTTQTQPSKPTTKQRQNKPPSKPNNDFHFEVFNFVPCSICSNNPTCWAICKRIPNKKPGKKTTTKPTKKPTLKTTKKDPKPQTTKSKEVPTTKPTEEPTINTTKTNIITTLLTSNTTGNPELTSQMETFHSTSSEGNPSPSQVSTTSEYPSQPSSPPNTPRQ


Tests used:
[1] = biological target: T1, RSV G protein of RSV A2 (native, on RSV …); test: FACS, RSV infected cells, anti-huIgG-PE
[2] = biological target: T2, purified recombinant RSV-Gb protein …; test: SPR (IBIS MX96), IgG captured on anti-human IgG, RSV Gb injected
[3] = biological target: T3, purified recombinant RSV-Ga protein …; test: SPR (IBIS MX96), IgG captured on anti-human IgG, RSV Ga injected
[4] = biological target: T4, RSV G protein in denatured and boiled …; test: western blot, denatured RSV A2 supernatant
[5] = biological target: T2, purified recombinant RSV-Gb protein …; test: SPR (IBIS MX96), IgG captured on anti-human IgG

| Binder | binding result [1] | Kd [2] | koff [2] | kon [2] | Kd [3] | koff [3] | kon [3] | binding result [4] | binding result [5] |
| --- | --- | --- | --- | --- | --- | --- | --- | --- | --- |
| AT36 (antibody, V domains shown) VH: QVQVVQSGAEVKKPGASVKVSCKTSGYNFIDHSVSWVRQAPGQGLEWMGWISPYNHRTVYAEKFQGRVTMTTDTSTRTVSMELRRLTSDDTAVYFCARDRVQQGEGNFFDHWGQGTPVTVTS VL: DIVMTQSPDSLAVSLGERATINCKSSQSLLHSSNNKIYLAWYQQKPGQPPKLLLYWASTRESGVPDRFTGSGSGTDFTLTINSLQAEDVAVYYCQQYYTTHPTFGQGTRLEIKR | binds | – | – | – | – | – | – | – | – |
| AT44 (antibody, V domains shown) VH: QVQLQASGPGLVKPSETLSLTCNVSGYSVSSGHYWAWVRQSPGKGLEWIGGIHHSGSTYTNPPLKSRVSISIDTSKNQFSLRLTSVTAADTAVYFCARDLYDLSTGPFWFDPWGQGTLVTVSS VL: EIVMTQSPATLSVSPGERVTLSCRASQSVSTKVVWYQQKFGQAPRLLIYGASTRATGIPVRFSGSGSGTEFTLTISSLQSEDLAVYFCQQYNKWPMYTFGQGTKLEIKR | – | 0.1 nM | 4e-05 s⁻¹ | 340000 M⁻¹ s⁻¹ | 0.1 nM | 3e-05 s⁻¹ | 350000 M⁻¹ s⁻¹ | – | – |
| AT42 (antibody, V domains shown) VH: QVQLQESGPGLVQPSETLSLTCTVSGDSITSNVYYWGWIRQPPGKGLEWIGSIFHSGITHYTPSLNSRVTISVDTSKNQFSLRLSSATAADTAVYYCARHWAGLYFDSWGQGALVAVSS VL: EIVLTQSPGTLSLSPGERATLSCRASQTVSSSHLAWYQQKPGQAPRLLIHGSSSRATGIPERFSGSGSGPDFTLTISRLKPEDFAVYYCQYYGDSPGSFGEGTKVEIKR | – | 0.3 nM | 0.0001 s⁻¹ | 400000 M⁻¹ s⁻¹ | 1.3 nM | 0.00076 s⁻¹ | 640000 M⁻¹ s⁻¹ | no binding | – |
| AT49 (antibody, V domains shown) VH: QVLLVQSGAEIKKPGSSVKISCKASGGTFSSLALNWVRQAPGQGLQWMGGIIPLFGTQNYAQKFQGRVTITADESTSTAYMELSGLRPEDTAVYYCALFLWFGDQTSDDGFDVWGQGTVVTVSS VL: DIVMTQSPLSLTVTPGEPASISCRSSQSLLHGNGYKYLHWYLQKPGQSPQLLIYLGSNRASGVPARFSGSGSDTDFTLKISTVETEDVGVYYCMQALQSPTFGQGTKVEIKR | – | 0.5 nM | 5e-05 s⁻¹ | 120000 M⁻¹ s⁻¹ | 0.1 nM | 3e-05 s⁻¹ | 220000 M⁻¹ s⁻¹ | – | – |
| AT34 (antibody, V domains shown) VH: QVQLMESGGGVVQPGKSLRLSCAASGFTFSHYGMHWVRQAPGKGLEWVAVISYDGDKKYYADSVKGRFTISRDNSKNTLHLHMNSLRHEDTAVYFCASQGAKGGHELSFYCALDVWGQGTTVAVSS VL: DIQMTQSPSTLSASVGDRVTITCRASQGIGSWLAWYQQKPGKAPKLLIYNASGLESGVPSGFSGSGSGTEFTLTISSLQPDDSATYYCQQYNSHTWTFGQGTKVEFKR | binds | – | – | – | – | – | – | – | – |
| AT40 (antibody, V domains shown) VH: QVQLVESGGGVVQPGMSHRLSCAASTLIFDRHALHWVRQAPGAGLEWVAILSYDGTTDYYADSVKGRFTVSRDTSKNTVFLQMNGLRPQDTAVYYCARGRALDDFADYGGYYFDYWGQGILVTVSS VL: DIQMTQSPSSVSASVGDKVTITCRASQGISTWLAWYQQKPGKAPALLIYSASRLQSGVPSRFSGSGSGTDFTLTISSLQPEDYATYYCQQANTFPFTFGPGTKVDIKR | – | 0.1 nM | 3e-05 s⁻¹ | 340000 M⁻¹ s⁻¹ | 0.2 nM | 6e-05 s⁻¹ | 350000 M⁻¹ s⁻¹ | – | – |
| AT32 (antibody, V domains shown) VH: QVQLVQSGAEMKKPGASVKVSCQVAGYTLTELSIHWVRQTPGNGLEWMGGFEPEDGEYIYPQKSQGRVTMTEDTSTGTAYMELRSLRSDDTAVYYCAAEARYCDNSRCSPNFDHWGQGTLVAVSS VL: DIVMTQSPDSLAVSLGERATFSCKSSQSVLYDSNNKNYLAWYQQRPGQPPKLLIYWASTRESGVPDRFSGSGSGTDFTLTISSLQPEDVAVYYCQQYYDPLITFGQGTRLEIKR | – | – | – | – | 0.6 nM | 0.00043 s⁻¹ | 750000 M⁻¹ s⁻¹ | – | – |
| AT46 (antibody, V domains shown) VH: EVQLVESGGGLVQPGGSLRLSCAASGFTFSRYVMSWVRQAPGRGLEWVSSITGSGATTYYADSVKGRFTISRDNSKNTVYLQMNRLRAEDTAIYYCANCGRAGQIFDDWGQGTLVTVSS VL: QPVLTQSPSASASLGASVKLTCTLSSGHRNYAIAWHQQRPEKGPRYLMKIYTNGSHYPGDGTPDRFSGSSSGAERYLTISSLQSEDEADYYCQTWGAGIWVFGGGTKLTVLG | – | – | – | – | – | – | – | – | no binding |
